Here are results for 40 sequences from the nanobody polyreactivity screen of Harvey et al. (2022).

This series in a line: yeast display, Sf9 membrane polyspecificity reagent, FACS + sequencing; frameworks hold sequencing errors. The gist of the method:
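Genes from sorted yeast were amplified by colony PCR, read by MiSeq 2 × 250 sequencing and filtered on CDR length. These cells carried a synthetic nanobody library in Saccharomyces cerevisiae BJ5465 and were sorted by FACS into low and high (top ~1%) gates on anti-HA and streptavidin fluorescence. Polyreactivity is labelled according to the gate of origin.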
As for “QVQLVESGGGLVQAGGSLRLSCAAYGSIFCIFAMGWYRQAPGKEWELVAAISSDGSTKYADSVKGRFTISRDNAKNTVYFQMNSLKPEDTAVYYCAKLKYVRIGGPKQSMALDYWGQGTQVTVSS”, the “polyreactivity (PSR sort gate)” value is on record as “low polyreactivity”.
The value for “QVQLVESGGGLVQAGGSLRLSCAAYGSIFPYYAMGWYRQAPGKERELVAGITSGTRTNYADSVKGRFTISRDNAKNTVYLQMNSLKPEDTAVYYCAAYYRAYRRDYYWGQGTQVTVSS” was “high polyreactivity”; that for “QVQLVESGGGLVQAGGSLRLSCAAYGSIFSFYVMGWNRQAPGKERELVARINWSSTSTYYADSVKGRFTISRDNAKNTVYLQMNSLKPEDTAVYYCAAGRRVYPGYYYWGQGTQVTVSS” was “high polyreactivity”.
As for “QVQLVESGGGLVQAGGSLRLSCAAYGSTFFRYAMGWYRQAPGKERELVAAISASTGSTYYADSVKGRFTISRDNAKNTVYLQMNSLKPEDTAVYYCNAELGYGTNDNWYDYWGKGTQVTVSS”, the entry is “low polyreactivity”; as for “QVQLVESGGGLVQAGGSLRLSCAAYGSTFRSYAMGWYRQAPGKERELVAAISYSGDSTYYADSVKGRFTISRDNAKNTVYLQMNSLKPEDTAVYYCAALRDWDFQCEPWKRYGYWGQGTLVTVSS”, “low polyreactivity”.
The value for “QVQLVESGGGLVQAGGSLRLSCAAYGSTFRTNAMGWYRQAPGKERELVAAISQRGGSTYYADSVKGRFTISRDNAKNTVYLQMNSLKPEDTGVYYCAARRYAYQSGGTLLTDDYWGQGTQVTVSS” was “high polyreactivity”.
Turning to “QVQLVESGGGLVQAGGSLRLSCAAYGSTFVWNTMGWYLQAPGKERELVAAINWSGTRTYYADSVKGRFTISRDNAKNTVYLQMNSLKPEDTAVYYCAAESYYPAGIRGYWGQGTQVTVSS”, the “polyreactivity (PSR sort gate)” value is given as “high polyreactivity”.
As for “QVQLVESGGGLVQAGGSLRLSCAAYGYIFRLYAMGWYRQAPGKERELVAGISTGGRTNYADSVKGRFTISRDNAKNTVYLQMNSLKPEDTAVYYCAAAWHTAYWVVSDSLGGGYWGQGTQVTVSS”, the entry is “low polyreactivity”; as for “QVQLVESGGGLVQAGGSLRLSCAAYVRIFGYYAMGWYRQAPGKERELVAGISARGGSTYYADSVKGRLTISRDNAKNTVYLQMNSLKPEDTAVYYCAAYYLWPGYLFRPYDYWGHGTQVTVSS”, “low polyreactivity”.
The value for “QVQLVESGGGLVQAGGSLRLSCAAYYAMGWYRQAPGKERELVAAISSTGRTNYADSVKGRFTISRDYAKNTVYLQMNSLKPEDTAVYYCNAGDPSGMDYWGQGTQVTVSS” was “low polyreactivity”; that for “QVQLVESGGGLVQAGGSLRLSCADSGFIFGNYAMGWYRQAPGKERELVAGISGSGGSTYYADSVKGRFTISRDNAKNTVYLQMNSLKPEDTAVYYCNAGWHPSQGRFEYWGQGTQVTVSS” was “high polyreactivity”; that for “QVQLVESGGGLVQAGGSLRLSCADSGFIFTVNAMGLYRQAPGKERELVAAITSGGNTYYADSVKGRFTISRDNAKNTVYLQMNSLKPEDAAVYYCNAVFYTWSPYGTTVRSYGYWGQGTQVTVSS” was “high polyreactivity”.
Consider “QVQLVESGGGLVQAGGSLRLSCADSGFILGANDMGWYRQAPGKERELVAAIRSSDGTTYYADSVKGRFTISRDNAKNTVYLQMNSLKPEDTAVYYCAADWRLLYDYWGQGTQVTVSS”, for which the “polyreactivity (PSR sort gate)” value is “high polyreactivity”.
The value for “QVQLVESGGGLVQAGGSLRLSCADSGFTFDYNAMGSYRQAPGKERELVAAISTGGSTKYADSVKGRFTISRDNAKNTVYLQMNSLKPEDTAVYYCNKQTTDRGFYDWKWSGFDYWGQGTQVTVSS” was “low polyreactivity”.
The value for “QVQLVESGGGLVQAGGSLRLSCADSGFTFGRYAMRWYRQATGKERELVAAISRGGSYTYYADSVKGRLTISRDNAQNTVFLQMNSLKPEDTAVYYCNIVIIWARFDYWRQGTQVTVSS” was “high polyreactivity”; that for “QVQLVESGGGLVQAGGSLRLSCADSGFTFRTYAMGWYRQAPGKEREFVAAITTYGGSTYYADSVKGRFTISRDNAKYTVYLQMNTLKPEDTAVYYCATRGRLRNYDYWGQGTQVTVSS” was “high polyreactivity”.
On to “QVQLVESGGGLVQAGGSLRLSCADSGFTFTYYTMGWYRQAPGKERELVAAISGSGGSTYYADSVKGRFTISRDNAKYTVYLQMNSQKPEDSAVYYCAARSRWQSYRLKNHGTYKHDYWGQGTQVTVSS”, for which the “polyreactivity (PSR sort gate)” value is reported as “high polyreactivity”.
The value for “QVQLVESGGGLVQAGGSLRLSCADSGFTFYRNAMGWYRQAPGKERELVAAITSTGSTNYADSVKGRFTISRDNAKNTVYLQMNSLKPEDTAVYYCIKRRFGRQGMDYWGQGTQVTVSS” was “low polyreactivity”; that for “QVQLVESGGGLVQAGGSLRLSCADSGGTFGNTAMGLYRQAHGKEMELVAAINRSDGGTYYADSEKCRFTISRDNAKNTVYLQMNSLKPEDTAVYYCNADDFYYDEPYDFWGQGTQVTVSS” was “low polyreactivity”; that for “QVQLVESGGGLVQAGGSLRLSCADSGGTFYRYARGWYRQAPGKERELVAAISRRGGSTYYADSVKGRFTISRDNAKNTVYLQMNSLKPDDTAVYYCDKDVSDSRFDYWGQGTQVTVSS” was “high polyreactivity”.
As for “QVQLVESGGGLVQAGGSLRLSCADSGITFVRNAMGWYIHAPGKERECVAAISGSGVSTYADSVKGRFTISRDNAKNTVYLQMNILKPEDTAVYYCNTDEWYHFYHGAHKYDYWGQATQVTVSS”, the entry is “low polyreactivity”; as for “QVQLVESGGGLVQAGGSLRLSCADSGLILYTYAMGWYRQAPGKERELVAAIDWGDGDTYYADSVKGRFTISRDNAKNTVYLQMNSLKPEDTAVYYCAADLVGYSGYYFDEEYYWGQGTQVTVSS”, “high polyreactivity”.
The value for “QVQLVESGGGLVQAGGSLRLSCADSGNTFKGYAMGWYRQAPGKERELVAAISWSGSSTYYADSVKGRFTISRDNAKNTVYLQMNSLKPEDTAVYYCAVTYRRFYYWGQGTQVTVSS” was “high polyreactivity”.
As for “QVQLVESGGGLVQAGGSLRLSCADSGRIFDVNDKRSYRQAPGKERELVAAITYSGTDTYYADSVKGRFTISRDNAKNTVYLQMNSLKPEDTAVYYCAAEFTGWEYIGRDYWGQGTQVTVSS”, the “polyreactivity (PSR sort gate)” value is listed as “low polyreactivity”.
The value for “QVQLVESGGGLVQAGGSLRLSCADSGRIFGRYAMGWYRQAPGQERELVAGISARGGSTYYADSVKGRFTISRDNAKNTVYLQMNRLKPEDTAVYYCAAAGYRGGGYWGQGTQVTVSS” was “high polyreactivity”.
The value for “QVQLVESGGGLVQAGGSLRLSCADSGRIFHTYAMGWYRHAPGKERELVAAISKGGSGTYYADSVKGRFTISRDNAKNTVYLQRNSLKPEDTAVYYCAADLTYHYPRYITYEYWGQRTQVTVSS” was “low polyreactivity”; that for “QVQLVESGGGLVQAGGSLRLSCADSGRIIDTYAMVWYRQAPGKERELVASISRSDTSTSNADSVKGRFTISRDNAKNTVYLQMNSLKPEDTAVYYCNKDGVPVNNTKRYDYWGQGTQVTVSS” was “low polyreactivity”.
As for “QVQLVESGGGLVQAGGSLRLSCADSGRLFYPYAMGWYTQAPGTERELVAAIRRSGVDTYYADSVKGRFTISRDNAKNTVYLQMNSLKPEDTAVYYCAADPYSFFPHYDSWGQGTQVTVSS”, the entry is “low polyreactivity”.
In the case of “QVQLVESGGGLVQAGGSLRLSCADSGRTFQYYAMGWSRQSPAKERELVAAITSGGSTYYADSVKGRFTISRDNAKNTVYLQMNSLKTEDTAVYYCAADFLYYSSGGKMDYWGQGTQVTVSS”, the “polyreactivity (PSR sort gate)” value is given as “low polyreactivity”.
As for “QVQLVESGGGLVQAGGSLRLSCADSGRTFRIYAMGLYIQAPGKERELVAAITRRGGSTYYADSVKGRFTISRDNAKNTVYLQMNSLKPEDTAVYYCAADLRYGYLYPYDSWGQGTQVTVSS”, the entry is “high polyreactivity”; as for “QVQLVESGGGLVQAGGSLRLSCADSGRTFSYNTMGWYRQATGKERELVARITWGGGSTYYADSVKGRFTISRDNAKNTVYLQMNSLKPEDTAVYYCNADLRELSPWYWYSGEMDYWGQGTQVTVSS”, “low polyreactivity”.
As for “QVQLVESGGGLVQAGGSLRLSCADSGRTFTRYAMGWYRQAPGKERELVAAISYIGGGTYYADSVKGRFTISRDNAKNTVYLQMNSLKPEDTAVYYCAGYSRQAEYEYWGQGTQVTVSS”, the entry is “high polyreactivity”.
The value for “QVQLVESGGGLVQAGGSLRLSCADSGRTFVGNAMGWSRQAPGKERELVAAITSRTGSTYYADSVKGRFTISRDNAKNTVYLQMTSLTPEDTAVYYCATPYYQNVYSRKAYTYWGQGTQVTVSS” was “high polyreactivity”; that for “QVQLVESGGGLVQAGGSLRLSCADSGRTSRVYAMGWYRQEPAKERELVAAITWRGGNTYYADSVKGRFTISRDNAKNTVYLQMNSLKPEDTAVYYCAADPLSYGSWHGDSWGQGTQVTLSS” was “high polyreactivity”.
Consider “QVQLVESGGGLVQAGGSLRLSCADSGSIFAYYARGWYRQAPGKERELVAAISQSGGSTYYAYSVKGRFTISRDTAKNTVYLQMNSLKPEDTAVYYCAARFRYGYTGYRYDYWGQGTQVTVSS”, for which the “polyreactivity (PSR sort gate)” value is on record as “high polyreactivity”.
As for “QVQLVESGGGLVQAGGSLRLSCADSGSIFSYYAMGWYRQEPGKARELVASISRTGVSTHYADSVKGRFTISRDNAKNTVYLQMNSLKPEDNAVYYCNAKYLTWSYRYYYWGQGTQVTVSS”, the entry is “high polyreactivity”; as for “QVQLVESGGGLVQAGGSLRLSCADSGSIFVWNDMGWYRQAPGKEREFVAAITSRDGSTYYADSVKGRFTISRDTAKNTVYLQMTSLKPEDTAVYYCAARLRVTGFYSRTRYYWGQGTQVTVAS”, “low polyreactivity”.
As for “QVQLVESGGGLVQAGGSLRLSCADSGSTFDYPMGWYRQAPGKERELVASITFSTGSTYYADSVKGRFTISRDNAKNTVYLQMNSLKPEDTAVYYCATGVDTYSLTVEHDSWVQGTQVTVSS”, the entry is “low polyreactivity”; as for “QVQLVESGGGLVQAGGSLRLSCADSGSTFNSYAMGWYRQAPGKERELVAAITHRGSTYYADSVKGRFTISLDNAKNTVYLQMNSLKPEDTAVDYCNVRRIGNGRRVDYWGQGTQVTVSS”, “high polyreactivity”.
For the sequence “QVQLVESGGGLVQAGGSLRLSCADSGSTFRRYAMGWYRQAPGKERELVAAISWSGGSTYYADSVKGRFTISRDNAKNTVYLQMKSLKPEDTAVYYCAARGVTSYWQDYDYWGQGTQVTVSS”, the “polyreactivity (PSR sort gate)” value is given as “low polyreactivity”.
